Laboratory results as given in the DeepSol protein solubility set.

Test: soluble on expression in E. coli; label from the status in PepcDB or PDB records

| Sequence | soluble on expression in E. coli |
| --- | --- |
| MSLGFKEYYRVFPTYTDINSQEYRSRIETLEPLLMKYMKKRGKVLDLACGVGGFSFLLEDYGFEVVGVDISEDMIRKAREYAKSRESNVEFIVGDARKLSFEDKTFDYVIFIDSIVHFEPLELNQVFKEVRRVLKPSGKFIMYFTDLRELLPRLKESLVVGQKYWISKVIPDQEERTVVIEFKSEQDSFRVRFNVWGKTGVELLAKLYFTKEAEEKVGNYSYLTVYNPKEGHHHHHH | soluble |
| MSLGIATFAVVDLETTGNQLDYDEIIQIGITFVRQNQVIDTYHSMIRTDLEIPPFIQALTSIEEEMLVQAPYFNEVADDIYQLIKDCVFVAHNISFDLNFIKKAFEKCNIQFKPKRVMDTLELFKIAFPTDKSYQLSALAESHHIPLNNAHRADEDATTTAKLMIKAFEKFEQLHEGHHHHHH | soluble |
| MSLGIKVVLLEKAHEIGEIGAGIQLGPNAFSALDSLGVGEVARQRAVFTDHITMMDAVNAEEVVCIETGQAFRDHFGGPYAVIHRVDIHASVWEAVLTHPDVEYHTSTNVVDIRETEDDVTVFDDRGNSWTGDILIGCDGVKSVVRQSLLGDAPRVTGHVVYRAVIDRADMPEDLRINAPVLWAGPHCHLVHYPLRGGKQYNLVVTFHSRQQEEWGVKDGSKEEVLSYFEGIHPRPRQMLDKPTSWRRWSTADREPVAKWGTKRITLVGDSAHPVAQYMAQGACMALEDAVTLGKALAQCEGDAAQAFALYESVRIPRTARIVWSTREMGRVYHAAGVERQVRNLLWKGKSQAEFYRGMEWLYGWKEDNCLQPREGHHHHHH | not soluble |
| MSLGKEEEYRITNVKIFKDTPVWELALAVKNEKTRTIEKLAKENPELLNYQEPKYGATLLLWAVGMEKYKSAEALLKCGADPNIASTVDGMTPLYLAAGFSWIDNYAKKDPKFVKLLLKYNADPNITYGGNAIIEPGTSPLMNSIRCGIEKTKALVEAGAYINYKTKSGTTAAIKALLAGQNATLEALEYAHYLIVEKKAKVTDPYYPWLVYEENNIQELYPVDILRRWVYPLDSEEYRIKMEIVEEFARQGVNYWDTEIDKYTLEQIKKLYPDTWEEYIKRYEGHHHHHH | soluble |
| MSLGKIRFGIVGTSNIANIFLRAASRVKDFELVAVYSRNLEKAREFGTLYGASIFFDDLEQMAKSKDIDAVYIASPNALHSKQTITCLKHKKHVLCEKSLASNLKEVKSMIKTAKDNNVLLMEAMRITCVPNFKAVKENLYKIGKIRRFFGSYCQYSSRYDKYKNGIIENAFKKELSNGALMDIGVYCIHPMVNLFGAPKTVKAVSHILQTGVDGEGSAVFQYDDMDAIIQYSKVADSYIPSEIQGEEGSIIIEKLNLFEKAIIKYRDGREEDISIPKEKAEEKPREIEGMYYELVEFISLINNNKIESNINSHENSIIVMEIMDEIRRQSSIVYPADSEGHHHHHH | soluble |
| MSLGKISFPVGVLFSGSGSYAQPARQGFRGAMTAIAHINASRRFPFNLQAHHFDPAGEADRYASLCRQLIRERDVRHVVGCTTSWSRKEAIPVVEKLDALLWYPCVYEGFEVSENLIYVAACANQHLVPLLDYIAPRFGSRAMLVGANYIWGWENNRIARDILHRSGGEVLGERFVSIGDTDIDHLIDEVREKRPDFILNNLIGPSSYAFLRAYQALGEADDRFRPEKCPIISCNLYEGEITGLGHAAAGHFTVSCYFRTLQSPENDSFLKTLAALDPGAIVDAFYAQAFSAVVMIAEAIMRCGSDDADLVRGALRGQSVDTPLGAISVDRWTNHVELPAHIGRARADGSFEIVKREGHHHHHH | not soluble |
| MSLGNARMYEALRDYGDRFDTVGIFTFEVDETGTITETGTSISSMLPYIQKWPHIKWLLTIMNHGIANIFTALRNNENGAKDKFLTEIIRIMNKYPWCAGVDIDLERGGGYENKDAANALFRDIYNTVKSYDATKLVNICLPGMIGVQGSVGGENWCVYADLNDYCDTAAIMSYGMAWAGSAPGPVSPRDWLEGIYDYAVSVMSPDKIFMGLPAYGWNWRIHDTPENLGITYRGVSNTYYAAKYWMTGVYNFTGDAPPQPFIPIVAYWDDYNKVPWALPHVYDYMEGWDAVSWEYPLLKGVYNRRRYLTSYGKEQKAEFGTIYIDRNGVPDEYEGNVIITDEMTSLGDAQASAEYRFEIREAGYYDIAVQLCFPYWDKNAIIVSLDGISKTFSENEGHHHHHH | not soluble |
| MSLGPTRANPKAVKPFIEQKEKKMVLVVDWHTKTLAATMNGRRPQDEDAMVVHGPLKNFPNARLKAIFDGHGGYSVSRRCASVAYGYLGAMKNLSQESFRSACLQMDADMRADTLKGGSTGLMVIIEKVDDPESRDGIYFNVHAANVGDSRGLILHSDGTYTIMSKDHKPTAEVERERIKRAGGFLLRRLGVWRVDGRLALSRAFGDFALKDRLDMKPNEQKVVALPDVNVFKAKPGDIILMGCDELANTLKNIQWDGGTVCSRRPRGRRSRDNVSIMLTKLVKRPIRNTQVKRFDYSFTGERYVLPSEEGHHHHHH | not soluble |
| MSLGQLLSHPIEEKELDYKSYTNLTYCIGSMQGYRMTMEDAHDVKINEHENLAVFGIFDGHGGKNCSQYLAEHLPKLVFTKLNKIASAVYLKQVKDIDLKDVFDILKNSFFKIDKDLSHHANMVNCGSTATVVTIIANYIVVANTGDSRCIVSRNGHAKPLSFDHKPSNMGERVRIENSNGYILNNRINEVLALSRAFGDFKFKLPYLSSSRNKYIKENQKLLGDKLITLPPELFQVTVEPDIMLYDMQKLDSPEFLVIACDGVWDCFKNGQLVKLIRDKLSLGWRLNKIVEYILNDSLTMANNYTGIGFDNMTLIIVAIHKEGHHHHHH | soluble |
| MSLGQSKVVYLNTHSTSSAGVETLNELCRLAEPGLETMLRQALDQVDDALFDRAERAANNADQALFFATMRQVRMSRRMVVQTFTQEMESAFSRLTQPHSSQTQEPAATAREDYSLELMDETVVEERVAAETVVGKLRTRSVFPLAQLQSRLDYLVVERKVDERNNPLDPRQVVDAFAVAMERLNIEIQPKLIIFKLFEKQALRQLPALYEAANRLLIDAGIMPKLRATGEPLVANEDRVQAPESGHQTSVDSEADTLTGNGSATLELLQGLLAQARGGNQPVPSTARCAGGASHSDLVQALSALQQQPRFANNETGGAQPFAAEELKALLGSALFVAPGGLPQPIERAADDTIDIVSMLFDIILDDSRLAPSIKAVIARLQIPVLKVAMLDRSFFNSRQHPARALINELAHAAMGWVEPENPSADPLYRKMNEVMNRILEGFEEDIVLFEQVLQDFRLFLEQERERAQTVEARTCQAAEGKAKVEDARERVQAEIERRLRGGSVPSVVHQILEGPWFKVLFITCVKDGPQGAVWESQLELMDRLIWSVQPNADPERRQDVLARIPALLNDLREGLNAILYNPFEMTRLFEELEAEHIRCLSAPPADLSDNTVNVEQGSEDESAFAQEGSSYDCDEPSVAAEPPQLTEEQCLREECLQRLVRVDLGTWFEFSTDAGRQLRAKLSARLNGGRRLIFVNRAGFKLADKKTEEVAADLSSGKAFILDHNMLFDKALEQVITNLRDLRVEQAEGHHHHHH | not soluble |
| MSLGRNEPVIGITPSFDYNENKMYINNIYCEAIILSGGMPVLLPVTEDEGLLSQMVEEFDGFLLSGGPDVDAVHWGEWNYSYNGEISPHRDKMELFIAKEAVAKDKPIFGICRGIQVLNVALGGTLYQDIYSQNKEKRLIKHSQNAPRWYPVHKVMLKAGSKVRNAHGAESIAVNSFHHQAVREPAPDFIVTGTSEDGIIEAIEHKNCKFAVGVQWHPEHMWKRDLSFLNIFKYFVSSCLEGHHHHHH | soluble |
| MSLGRPAPFKVGALNSITGAGGTYGPGMLEAIKIGIAEVNAAGGAAGRELKLYAEDDQTRPDAAVLAARKLVDIQHVDAMIGIWSSAVQLATLPITNAAGILSFNTCGAPEIRTEDKRDLVFQFYASNAIIGAAFAAIGQRLGYKRAAVLGYNNATMSVQANHFKAAWEKKGNQIVSSAIYEPNQATYRTEVEKAVAAKPDVIVLSSYTPDATILLKEWYQTGYECKFIMPGYSATPALIKALGPDVMRNIVSTANVPASDNQAYKAFVEKFQAVTKSPPEMFAAAAYDMVITLALAIEAAGPDAKPADLSALVRQVSNPPGQKVSSFVQGRDLLRQKAKIDFDGASSSLDFDANGDTVPDFGIYEFDGKAFALKDVVPGATEGHHHHHH | soluble |
| MSLGSGTSTQHHFAFQNAERAFKAAALIQRWYRRYVARLEMRRRCTWSIFQSIEYAGQQDQVKLHDFFSYLMDHFIPSSHNDRDFLTRIFTEDRFAQDSEMKKCSDYESIEVPDSYTGPRLSFPLLPDHATALVEAFRLKQQLHARYVLNLLYETKKHLVQLPNINRVSTCYSEEITVCGDLHGQLDDLIFIFYKNGLPSPERSYVFNGDFVDRGKDSVEILMILFAFMLVYPKEFHLNRGNHEDHMVNLRYGFTKEVMNKYKVHGKEILRTLQDVFCWLPLATLIDEKVLILHGGVSDITDLELLDKIERSKIVSTMRSGTQEEWRQVVDILWSDPMAQEGCKANTIRGGGCYFGPDVTQQLLQKYNMQFLIRSHECKPEGYEFCHNRKVLTIFSASNYYEVGSNRGAYVKLGPALTPHIVQYQANKVTHTLTMRQREGHHHHHH | not soluble |
| MSLGSQGSGLEQSSFQWSPSGRRTGSLYCRVGIGFHLQIYPDGKVNGSHEANMLSVLEIFAVSQGIVGIRGVFSNKFLAMSKKGKLHASAKFTDDCKFRERFQENSYNTYASAIHRTEKTGREWYVALNKRGKAKRGCSPRVKPQHISTHFLPRFKQSEQPELSFTVTVPEKEGHHHHHH | not soluble |
| MSLGTNKDYIEYVHKVYDYLHTIPEKGFEEYKTSEFVLKELEKMGFENINKGVAGTGIIVTIDSKKEGPVFAIRADMDALEFIIDGEKKMIHACGHDGHTSMLLTAAKLIKERNLVKRGKLKILFQPGEEKLYGALRVIDSGLLDDVEEMVGMHLRPGQDCRLGKAIPAMYHCASCIMEFTIKGITCHGSKPHLGVNAVDAVCLAVNAINAIRVNPAIPNSIKVTNISVKGETYNNIPDEAFMALDIRAESNDIIEELKEKAIHAAKTAVSSINAEAVLISKDGVPAAEFDEELVNLAEETIKDVLGADASIGIFKNSGGEDFHYYTQKLKCKTTYIGLGADATPGFHNPNVTFDTKALEYGVDIWCRLVEKRLGEGHHHHHH | soluble |
| MSLGTVHARSLDPLPMQGPELGVQADDMDLGEPEREEKQEVLENKDVVVQHVHIDGLGRTKEDILTYEIADVFHAKNLIDVMKKSHEARQKLLRLGIFRHVEVVIDTAEGADALPNGLDVTFEVRELRRMTGSYNTMVGNNEGSMVLGIKLPNVLGRAEKLTFQFSYGTKETSYGLSFFKPQPGHFERNFSLNLYKVTGQFPWSSLRETDRGVSAEISFPIWRTSHTLKWEGVWRELGCLARTASFAVREESGHSLKSSLAHAMVIDTRNSTILPRKGALLKINQELAGYTGGDVSFLKEDFEIQLNKTLFWDSVLSTSLWGGMLLPLGEKASSIADRFYLGGPTSVRGFSMYSIGPQSEGDYLGGEAYWAGGVHLYTPLPFRPGRGGFGDLFRTHFFLNAGNLCNLNYGEGPRAHLSKLAECIRWSYGAGIVLRLGNIARLELNYCIPMGVQSGDRICDGVQFGAGIRFLEGHHHHHH | not soluble |
| MSLHDYCLPCPTSLSGIAEVNPMSKPLVRWPINPLRTAVIVVDMQKVFCEPTGALYVKSTADIVQPIQKLLQAARAAQVMVIYLRHIVRGDGSDTGRMRDLYPNVDQILARHDPDVEVIEALAPQSDDVIVDKLFYSGFHNTDLDTVLRARDVDTIIVCGTVTNVCCETTIRDGVHREYKVIALSDANAAMDYPDVGFGAVSAADVQRISLTTIAYEFGEVTTTAEVIRREGHHHHHH | not soluble |
| MSLHGKLIQFHKFGNPKDVLQVEYKNIEPLKDNEVFVRMLVRPINPSDLIPITGAYAHRIPLPNIPGYEGVGIVENVGAFVSRELIGKRVLPLRGEGTWQEYVKTSADFVVPIPDSIDDFTAAQMYINPLTAWVTCTETLNLQRNDVLLVNACGSAIGHLFAQLSQILNFRLIAVTRNNKHTEELLRLGAAYVIDTSTAPLYETVMELTNGIGADAAIDSIGGPDGNELAFSLRPNGHFLTIGLLSGIQVNWAEIVTKAKVHANIFHLRHWNDEVSPYKWQETFRHLIRLVENEQLRFMKVHSTYELADVKAAVDVVQSAEKTKGKVFLTSYEGHHHHHH | soluble |
